Data taken from FireProtDB (doi:10.1021/bi00017a003).

Details: Hordeum vulgare; pH 6.3; 25 °C; GdnHCl; Fluorescence; MES 50 mM; whole UniProt chain shown

B1: Subtilisin-chymotrypsin inhibitor-2A wild type, P01053 (protein)
chain: MSSVEKKPEGVNTGAGDRHNLKTEWPELVGKSVEEAKKVILQDKPEAQIIVLPVGTIVTMEYRIDRVRLFVDKLDNIAQVPRVG
Question: For B1, which denaturant m value is on record?
Answer: 1.9 kcal/mol/M

Question: And the “denaturant midpoint (higher = more stable)” value?
Answer: 4 M
